Measurements published in patent US20110065632A1, “PHARMACEUTICAL COMPOSITIONS OF SOMATOSTATIN-DOPAMINE CONJUGATES” (priority 2008, published 2011).
In brackets after ≈: the same amount, converted by molar mass.

Test: Solubility of Example 1 at various concentrations of DMA and PEG400
Format: physicochemical
Description: A compound that may advantageously be used to practice the invention can be tested to determine its solubility at different DMA and PEG400 concentrations using the following procedure.
To about 1 mg of Example 1 were added increasing volumes of the above solvents or buffers. When a soluble volume was reached, the concentration was calculated by weight/volume. When Example 1 was not soluble, the solution was centrifuged and the supernatant was analyzed by HPLC to determine the concentrations. The determined concentration is treated as the solubility of Example 1 in that solvent or buffer.
The solution pHs were checked. They were about pH 7. No further adjustment was done.

CCCN1C[C@H](CSCC(=O)NCCCC[C@@H](NC(=O)CSC[C@@H]2C[C@@H]3c4cccc5[nH]cc(c45)C[C@H]3N(CCC)C2)C(=O)N[C@H]2CSSC[C@@H](C(=O)N[C@H](C(N)=O)[C@@H](C)O)NC(=O)[C@H](CC)NC(=O)[C@H](CCCCN)NC(=O)[C@@H](Cc3c[nH]c4ccccc34)NC(=O)[C@H](Cc3ccc(O)cc3)NC2=O)C[C@@H]2c3cccc4[nH]cc(c34)C[C@H]21 [Example 1, Dop2-DLys(Dop2)-cyclo[Cys-Tyr-DTrp-Lys-Abu-Cys]-Thr-NH2]
solubility (5% DMA in PBS, PBS pH 7, 5% DMA, by HPLC): 130 µg/mL (≈ 76.7 µM) | solubility (5% DMA in water, Water pH 7, 5% DMA): > 100000 µg/mL | solubility (5% PEG400 in PBS, PBS pH 7, 5% PEG400, by HPLC): 50 µg/mL (≈ 29.5 µM) | solubility (5% PEG400 in water, Water pH 7, 5% PEG400): > 50000 µg/mL | solubility (10% DMA in PBS, PBS pH 7, 10% DMA, by HPLC): 480 µg/mL (≈ 283 µM) | solubility (10% DMA in water, Water pH 7, 10% DMA): > 100000 µg/mL | solubility (10% PEG400 in PBS, PBS pH 7, 10% PEG400, by HPLC): 330 µg/mL (≈ 195 µM) | solubility (10% PEG400 in water, Water pH 7, 10% PEG400): > 50000 µg/mL | solubility (20% DMA in PBS, PBS pH 7, 20% DMA, by HPLC): 780 µg/mL (≈ 460 µM) | solubility (20% DMA in water, Water pH 7, 20% DMA): > 100000 µg/mL | solubility (20% PEG400 in PBS, PBS pH 7, 20% PEG400, by HPLC): 750 µg/mL (≈ 443 µM) | solubility (20% PEG400 in water, Water pH 7, 20% PEG400): > 50000 µg/mL | solubility (30% DMA in PBS, PBS pH 7, 30% DMA, by HPLC): 4200 µg/mL (≈ 2480 µM) | solubility (30% DMA in water, Water pH 7, 30% DMA): > 100000 µg/mL | solubility (30% PEG400 in PBS, PBS pH 7, 30% PEG400, by HPLC): 2980 µg/mL (≈ 1760 µM) | solubility (30% PEG400 in water, Water pH 7, 30% PEG400): > 50000 µg/mL | solubility (40% DMA in PBS, PBS pH 7, 40% DMA): > 50000 µg/mL | solubility (40% DMA in water, Water pH 7, 40% DMA): > 100000 µg/mL | solubility (40% PEG400 in PBS, PBS pH 7, 40% PEG400, by HPLC): 3500 µg/mL (≈ 2070 µM) | solubility (40% PEG400 in water, Water pH 7, 40% PEG400): > 50000 µg/mL | solubility (PBS (0% DMA), PBS pH 7, 0% DMA, by HPLC): 40 µg/mL (≈ 23.6 µM) | solubility (water (0% DMA), Water pH 7, 0% DMA, by HPLC): 860 µg/mL (≈ 508 µM) | Solubility in water based versus PBS based solvents (water vs PBS): much more soluble in water based solvents than in PBS based solvents
